US20160312197

Key:
Experiment in all cases: cell_activity
[1] = test system: CCR5 ZFN, L6a linker (FokI) (Artificial Sequence)
[2] = test system: CCR5 ZFN, L7a linker (FokI) (Artificial Sequence)
[3] = target: CCR5 ZFN SBS 8266, wild-type ZC linker (FokI) (Artificial Sequence) (UniProt P14870)
[4] = test system: mROSA-targeted ZFN pair, Wt/Wt linkers (Artificial Sequence); conditions: Neuro2A, mock 0.4
[5] = test system: mROSA-targeted ZFN pair, Wt/L7a linkers (Artificial Sequence); conditions: Neuro2A, mock 0.4
[6] = test system: rat IgM-targeted ZFN pair, ZC linkers (Artificial Sequence); conditions: rat C6 cells
[7] = test system: rat IgM-targeted ZFN pair, one L7a linker (Artificial Sequence); conditions: rat C6 cells
[8] = no cleavage at this spacing, binding not measured

Sequence of CCR5 ZFN, L7a linker (FokI) (Artificial Sequence) (chain, as listed by the source): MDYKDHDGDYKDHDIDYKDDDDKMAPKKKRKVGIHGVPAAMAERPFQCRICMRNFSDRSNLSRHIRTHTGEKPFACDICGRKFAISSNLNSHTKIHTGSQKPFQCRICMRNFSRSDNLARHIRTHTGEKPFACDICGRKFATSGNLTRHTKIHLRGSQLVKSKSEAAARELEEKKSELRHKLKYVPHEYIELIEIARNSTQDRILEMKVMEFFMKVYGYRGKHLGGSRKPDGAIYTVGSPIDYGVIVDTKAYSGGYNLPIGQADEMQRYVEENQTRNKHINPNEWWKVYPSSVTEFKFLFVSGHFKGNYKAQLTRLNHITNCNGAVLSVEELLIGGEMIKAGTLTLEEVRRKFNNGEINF
Sequence of CCR5 ZFN, L6a linker (FokI) (Artificial Sequence) (chain, as listed by the source): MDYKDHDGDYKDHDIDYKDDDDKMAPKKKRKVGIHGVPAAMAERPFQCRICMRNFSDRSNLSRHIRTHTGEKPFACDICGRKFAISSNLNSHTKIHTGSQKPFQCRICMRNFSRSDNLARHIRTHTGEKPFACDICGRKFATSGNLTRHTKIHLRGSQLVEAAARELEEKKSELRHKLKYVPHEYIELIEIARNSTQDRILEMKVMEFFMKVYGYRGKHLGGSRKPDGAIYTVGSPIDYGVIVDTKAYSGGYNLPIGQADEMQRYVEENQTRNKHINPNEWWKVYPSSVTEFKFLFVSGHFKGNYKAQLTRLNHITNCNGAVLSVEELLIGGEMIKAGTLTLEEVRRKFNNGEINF
Sequence of CCR5 ZFN SBS 8266, wild-type ZC linker (FokI) (Artificial Sequence) (P14870 other isoform, or with tags, fused parts or gaps): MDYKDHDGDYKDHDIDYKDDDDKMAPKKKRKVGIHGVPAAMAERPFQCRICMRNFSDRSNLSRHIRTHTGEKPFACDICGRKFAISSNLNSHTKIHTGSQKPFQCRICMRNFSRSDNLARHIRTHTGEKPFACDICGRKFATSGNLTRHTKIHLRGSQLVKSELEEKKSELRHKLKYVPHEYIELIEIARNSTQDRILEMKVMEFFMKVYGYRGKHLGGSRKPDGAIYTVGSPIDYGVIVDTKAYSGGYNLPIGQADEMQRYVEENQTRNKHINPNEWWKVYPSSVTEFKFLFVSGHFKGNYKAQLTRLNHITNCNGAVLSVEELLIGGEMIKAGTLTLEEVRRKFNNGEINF

CCR5 ZFN sites, 4 bp gap showed an activity [1, 8] of 0 % NHEJ, an activity [2, 8] of 0 % NHEJ and an activity ([3]; ZFN pair, average of 2) of 1.2 % NHEJ.
CCR5 ZFN sites, 5 bp gap showed an activity ([1]; ZFN pair, average of 2) of 39.3 % NHEJ, an activity [2, 8] of 0 % NHEJ and an activity ([3]; ZFN pair, average of 2) of 35 % NHEJ.
For CCR5 ZFN sites, 6 bp gap, the activity ([1]; ZFN pair, average of 2) was 25.4 % NHEJ, the activity ([2]; ZFN pair, average of 2) was 31.8 % NHEJ and the activity ([3]; ZFN pair, average of 2) was 11.1 % NHEJ.
With CCR5 ZFN sites, 7 bp gap the activity ([1]; ZFN pair, average of 2) was 5.1 % NHEJ, the activity ([2]; ZFN pair, average of 2) was 39.6 % NHEJ and the activity [3, 8] was 0 % NHEJ.
CCR5 ZFN sites, 8 bp gap showed an activity [1, 8] of 0 % NHEJ, an activity ([2]; ZFN pair, average of 2) of 6.1 % NHEJ and an activity [3, 8] of 0 % NHEJ.
mROSA target, 6 bp gap was tested, and the activity [4] was 22.6 % NHEJ and the activity [5] was 7.5 % NHEJ.
rat IgM target, 6 bp gap gave an activity [6] of 1.93 % NHEJ and an activity [7] of 2.43 % NHEJ.
